# Measurements as given in patent US20210040184A1 (ATRECA, published 2021).
# Numbering of substitutions follows the chain as printed.
# B1: CysCV (antibody, V domains shown)
# VH: ADLVQSGAVVKKPGDSVRISCEAQGYRFPDYIIHWIRRAPGQGPEWMGWMNPMGGQVNIPWKFQGRVSMTRDTSIETAFLDLRGLKSDDTAVYYCVRDRSNGSGKRFESSNWFLDLWGRGTAVTIQS
# VL: QSALTQPRSVSASPGQSVTISCTGTHNLVSWVQHQPGRAPKLLIYDFNKRPSGVPDRFSGSGSGGTASLTITGLQDDDDAEYFCWAYEAFGGGTKLTVL
# B2: NglycoSA (antibody, V domains shown)
# VH: B1 VH with S103A
# VL: B1 VL with V32C
# B3: Germ12_NglycoSA_CysCV (antibody, V domains shown)
# VH: QVDLVQSGAVVKKPGDSVRVSCEAQGYRFPDYIIHWIRRAPGQGPEWMGWMNPMGGQVNIPWKFQGRVSMTRDTSIETAYMDLRGLRSDDTAVYYCVRDRSNGAGKRFESSNWFLDLWGRGTLVTVSS
# VL: B1 VL with A12G, T72S, D77E
# B4: Cd4bs_H53MS_H54GY (antibody, V domains shown)
# VH: B1 VH with M53S, G54Y
# VL: B1 VL with V32C
# B5: Germ17 (antibody, V domains shown)
# VH: B3 VH with A104S
# VL: B1 VL with A12G, V32C, Q35H, R38K, L43M, T72S, D76A, D77E, D79E
# B6: CysCA (antibody, V domains shown)
# VH: B1 VH
# VL: B1 VL with V32A
# B7: Germ18 (antibody, V domains shown)
# VH: B3 VH with D3Q, V10E, D16A, R19K, Q25S, D82E, A104S
# VL: B1 VL with A12G, V32C, T72S, D77E
# B8: Germ6 (antibody, V domains shown)
# VH: B1 VH with I19V, F79Y, I125V
# VL: B1 VL with A12G, V32C, T72S, D77E
# B9: Germ23_NglycoSA_CysCV (antibody, V domains shown)
# VH: B3 VH with D3Q, V10E, D16A, R19K, Q25S, D82E
# VL: B1 VL with A12G, Q35H, R38K, L43M, T72S, D76A, D77E, D79E
# B10: Germ23 (antibody, V domains shown)
# VH: B3 VH with D3Q, V10E, D16A, R19K, Q25S, D82E, A104S
# VL: B1 VL with A12G, V32C, Q35H, R38K, L43M, T72S, D76A, D77E, D79E
# B11: Germ12_NglycoSA_CysCA (antibody, V domains shown)
# VH: B3 VH
# VL: B1 VL with A12G, V32A, T72S, D77E
# B12: Germ12 (antibody, V domains shown)
# VH: B3 VH with A104S
# VL: B1 VL with A12G, V32C, T72S, D77E
# B13: Hydro2 (antibody, V domains shown)
# VH: B1 VH with W61Q
# VL: B1 VL with V32C, A89N
# Target: HIV-1 ZM233M.PB6 envelope (Env) on Env.IMC.LucR virus (HIV-1 clade C)
# Test: cell-based or functional assay
row,Binder,"IC50 of virus neutralization (TZM-BL, luciferase)"
1,B1,0.079 mg/L
2,B2,0.151 mg/L
3,B3,0.731 mg/L
4,B4,0.096 mg/L

# Target: HIV-1 DU422.1 envelope (Env) on Env.IMC.LucR virus (HIV-1 clade C)
# Test: cell-based or functional assay
row,Binder,"IC50 of virus neutralization (TZM-BL, luciferase)"
1,B5,> 50 mg/L
2,B1,> 50 mg/L
3,B6,> 50 mg/L
4,B2,> 50 mg/L
5,B7,> 50 mg/L
6,B3,> 50 mg/L
7,B8,> 50 mg/L
8,B9,> 50 mg/L
9,B10,> 50 mg/L
10,B11,> 50 mg/L
11,B4,0.89 mg/L
12,B12,> 50 mg/L
13,B13,> 50 mg/L

# Target: HIV-1 THRO4156.18 envelope (Env) on Env.IMC.LucR virus (HIV-1 clade B)
# Test: cell-based or functional assay
row,Binder,"IC50 of virus neutralization (TZM-BL, luciferase)"
1,B1,1.4 mg/L
2,B2,0.929 mg/L
3,B3,11.7 mg/L

# Target: HIV-1 DU172.17 envelope (Env) on Env.IMC.LucR virus (HIV-1 clade C)
# Test: cell-based or functional assay
row,Binder,"IC50 of virus neutralization (TZM-BL, luciferase)"
1,B5,0.117 mg/L
2,B1,0.102 mg/L
3,B6,0.169 mg/L
4,B2,0.11 mg/L
5,B7,0.223 mg/L
6,B3,0.714 mg/L
7,B8,0.102 mg/L
8,B9,0.831 mg/L
9,B10,0.182 mg/L
10,B11,0.088 mg/L
11,B4,0.273 mg/L
12,B12,0.267 mg/L
13,B13,0.131 mg/L

# Target: HIV-1 X1632_S2_B10 envelope (Env) on Env.IMC.LucR virus (HIV-1 clade G)
# Test: cell-based or functional assay
row,Binder,"IC50 of virus neutralization (TZM-BL, luciferase)"
1,B5,> 50 mg/L
2,B1,> 50 mg/L
3,B6,> 50 mg/L
4,B2,> 50 mg/L
5,B7,> 50 mg/L
6,B3,> 50 mg/L
7,B8,> 50 mg/L
8,B9,> 50 mg/L
9,B10,> 50 mg/L
10,B11,> 50 mg/L
11,B4,9.87 mg/L
12,B12,> 50 mg/L
13,B13,> 50 mg/L

# Target: HIV-1 CNE20 envelope (Env) on Env.IMC.LucR virus (HIV-1 clade BC)
# Test: cell-based or functional assay
row,Binder,"IC50 of virus neutralization (TZM-BL, luciferase)"
1,B5,0.081 mg/L
2,B1,0.037 mg/L
3,B6,0.034 mg/L
4,B2,0.05 mg/L
5,B7,0.081 mg/L
6,B3,0.059 mg/L
7,B8,0.091 mg/L
8,B9,0.064 mg/L
9,B10,0.066 mg/L
10,B11,0.062 mg/L
11,B4,0.047 mg/L
12,B12,0.244 mg/L
13,B13,0.049 mg/L

# Target: HIV-1 AC10.0.29 envelope (Env) on Env.IMC.LucR virus (HIV-1 clade B)
# Test: cell-based or functional assay
row,Binder,"IC50 of virus neutralization (TZM-BL, luciferase)"
1,B5,> 50 mg/L
2,B1,> 50 mg/L
3,B6,> 50 mg/L
4,B2,> 50 mg/L
5,B7,> 50 mg/L
6,B3,> 50 mg/L
7,B8,> 50 mg/L
8,B9,> 50 mg/L
9,B10,> 50 mg/L
10,B11,> 50 mg/L
11,B4,3 mg/L
12,B12,> 50 mg/L
13,B13,> 50 mg/L

# Target: HIV-1 WITO4160.33 envelope (Env) on Env.IMC.LucR virus (HIV-1 clade B)
# Test: cell-based or functional assay
row,Binder,"IC50 of virus neutralization (TZM-BL, luciferase)"
1,B1,0.186 mg/L
2,B2,0.179 mg/L
3,B3,0.488 mg/L
4,B4,0.15 mg/L

# Target: HIV-1 REJO4541.67 envelope (Env) on Env.IMC.LucR virus (HIV-1 clade B)
# Test: cell-based or functional assay
row,Binder,"IC50 of virus neutralization (TZM-BL, luciferase)"
1,B5,0.033 mg/L
2,B1,≤ 0.02 mg/L
3,B6,≤ 0.02 mg/L
4,B2,0.04 mg/L
5,B7,0.039 mg/L
6,B3,≤ 0.02 mg/L
7,B8,0.062 mg/L
8,B9,≤ 0.02 mg/L
9,B10,0.037 mg/L
10,B11,0.028 mg/L
11,B4,0.044 mg/L
12,B12,0.092 mg/L
13,B13,≤ 0.02 mg/L

# Target: HIV-1 CAP45.2.00.G3 envelope (Env) on Env.IMC.LucR virus (HIV-1 clade C)
# Test: cell-based or functional assay
row,Binder,"IC50 of virus neutralization (TZM-BL, luciferase)"
1,B5,0.037 mg/L
2,B1,0.035 mg/L
3,B6,0.035 mg/L
4,B2,0.037 mg/L
5,B7,0.036 mg/L
6,B3,0.047 mg/L
7,B8,0.135 mg/L
8,B9,0.05 mg/L
9,B10,0.035 mg/L
10,B11,0.042 mg/L
11,B4,0.03 mg/L
12,B12,0.063 mg/L
13,B13,0.039 mg/L
